Here are results for one substance from article PMC11853024.

Test [1] deals with equine LH/chorionic gonadotropin receptor from pVSVG-eLH/CGR (pCORON1000 SP VSV-G), in HEK 293 cells (equine).
Test [2] has as its target equine LH/chorionic gonadotropin receptor (eLH/CGR), in CHO-K1 cells (equine).
For test [3], the target named is rat LH/chorionic gonadotropin receptor (rLH/CGR), in CHO-K1 cells (rat) (UniProt P16235).
Test [4] concerns the target rat FSH receptor (rFSHR), in CHO-K1 cells (rat) (UniProt P20395).
Sequence of UniProt P20395 (P20395 18-692): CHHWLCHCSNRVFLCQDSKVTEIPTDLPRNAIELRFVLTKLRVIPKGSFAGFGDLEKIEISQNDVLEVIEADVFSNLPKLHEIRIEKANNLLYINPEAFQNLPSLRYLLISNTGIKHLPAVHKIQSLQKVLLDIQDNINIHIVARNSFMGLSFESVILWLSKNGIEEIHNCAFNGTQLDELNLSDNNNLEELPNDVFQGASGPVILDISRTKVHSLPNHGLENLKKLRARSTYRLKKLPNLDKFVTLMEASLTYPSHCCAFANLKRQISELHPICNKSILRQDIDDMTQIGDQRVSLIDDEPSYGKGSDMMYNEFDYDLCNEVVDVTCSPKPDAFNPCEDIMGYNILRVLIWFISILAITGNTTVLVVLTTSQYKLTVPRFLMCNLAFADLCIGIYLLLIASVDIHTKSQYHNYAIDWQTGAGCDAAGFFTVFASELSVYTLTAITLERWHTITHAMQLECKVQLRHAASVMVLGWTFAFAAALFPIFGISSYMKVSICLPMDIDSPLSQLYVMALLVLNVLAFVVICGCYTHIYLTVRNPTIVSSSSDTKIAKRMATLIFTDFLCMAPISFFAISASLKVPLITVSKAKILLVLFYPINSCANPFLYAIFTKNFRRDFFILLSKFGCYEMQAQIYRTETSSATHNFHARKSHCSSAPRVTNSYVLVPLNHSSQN

Sequence of UniProt P16235 (P16235 27-700): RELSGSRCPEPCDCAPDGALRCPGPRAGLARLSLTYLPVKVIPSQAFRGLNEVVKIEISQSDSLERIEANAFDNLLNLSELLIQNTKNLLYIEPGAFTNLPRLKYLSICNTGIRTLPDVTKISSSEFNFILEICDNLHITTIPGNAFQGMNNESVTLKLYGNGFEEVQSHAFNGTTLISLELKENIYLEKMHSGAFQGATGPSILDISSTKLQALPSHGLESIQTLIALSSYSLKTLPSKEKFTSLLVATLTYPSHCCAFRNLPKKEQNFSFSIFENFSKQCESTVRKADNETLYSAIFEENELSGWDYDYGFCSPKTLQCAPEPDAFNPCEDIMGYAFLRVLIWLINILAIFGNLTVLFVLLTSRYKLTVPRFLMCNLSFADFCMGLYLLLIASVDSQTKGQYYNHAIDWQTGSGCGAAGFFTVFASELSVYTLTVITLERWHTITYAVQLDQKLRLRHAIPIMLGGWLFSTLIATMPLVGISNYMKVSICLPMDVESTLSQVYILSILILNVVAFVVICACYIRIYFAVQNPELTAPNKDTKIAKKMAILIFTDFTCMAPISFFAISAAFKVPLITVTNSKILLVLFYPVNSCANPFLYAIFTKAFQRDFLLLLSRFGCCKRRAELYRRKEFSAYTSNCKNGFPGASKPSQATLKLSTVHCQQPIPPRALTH

In test [1], “single-chain recombinant equine chorionic gonadotropin β/α (rec-eCG β/α) (from UniProt P08751 21-169) (ligand)” registered a pERK1/2 activation (HTRF) in HEK 293 cells expressing eLH/CGR, 50 and 250 ng/mL rec-eCG, 0 to 30 min, fold over basal activity of 7.8 fold. This substance also showed a cAMP production (HTRF) in CHO-K1 cells expressing eLH/CGR, 30 min with rec-eCG: EC50 in test [2] of 0.2 ng/mL. Also, in test [3], the cAMP production (HTRF) in CHO-K1 cells expressing rLH/CGR, 30 min with rec-eCG: EC50 worked out at 0.03 ng/mL. In addition, in test [4], the cAMP production (HTRF) in CHO-K1 cells expressing rFSHR, 30 min with rec-eCG: EC50 is 0.1 ng/mL.
